Test results: a protein production outcome set (Wang et al. 2014)

Experiment: label from the status in PepcDB records

Sequence | protein production
MKTIRAILNGKKAGNPELRDAIMKMRDRGVDVQVRVTWESQDMPRLVKEAVTDGIERIVVAGGDGTVNEAASALIHIDHESRPELAIIPLGTANDFATANHIPDSIADALTLAVEGQALSVDCVKANDRCFINVAAAGFGAEVTAETPVELKNFLGGGAYTLTGVVKALGFKPYDGSITIEGGRYDGEMLLGAFCNSRLAGGGQQLAPNAMIDDGLMDLTLVRPFLPHELPKVIEEINNPSEKGEFVKHTRASWLEIDFPNPLPLNLDGEPYHSRKIRFEVQPKSLKLVLPKDCPCVTH | failed
MSIYNSIGKQYSQTRVPDIRIVNAIINLLNLPKGSVIADIGAGTGGYSVALANQGLFVYAVEPSIVMRQQAVVHPQVEWFTGYAENLALPDKSVDGVISILAIHHFSHLEKSFQEMQRIIRDGTIVLLTFDIRLAQRIWLYDYFPFLWEDALRFLPLDEQINLLQENTKRRVEAIPFLLPHDLSDLFAAAAWRRPELYLKAEVRAGISSFALANQDLVEKGLELLTADLNNGEWIRKYGEIHHLQEIDIGYRFIYTTLDK | not failed
MVVVTGREPDSRRQDGAMSSSDAEDDFLEPATPTATQAGHALPLLPQEFPEVVPLNIGGAHFTTRLSTLRCYEDTMLAAMFSGRHYIPTDSEGRYFIDRDGTHFGDVLNFLRSGDLPPRERVRAVYKEAQYYAIGPLLEQLENMQPLKGEKVRQAFLGLMPYYKDHLERIVEIARLRAVQRKARFAKLKVCVFKEEMPITPYECPLLNSLRFERSESDGQLFEHHCEVDVSFGPWEAVADVYDLLHCLVTDLSAQGLTVDHQCIGVCDKHLVNHYYCKRPIYEFKITWW | failed
IDTVAPDMRIHGFLNAQEFTLYLDTSGEALFKRGLRQTQGEAPLRENLAAGILALTGWQPGTPLLDPMCGSGTLLLEAAQIACRIAPGSGRQFAFEQLKLFDARSWKKLKQTATERQHERTFQSIYGSDLYGSALAHTRNNLAAAGLAECVTLKQANVLEISAPAETGILVSNPPYGVRIGDHQMLAEFYPRLGDVLKQRFSGWRAFLLTADPLLAKSIRLTPSRRTPLFNGALECRLLEYRLVAGSMRREKQPSSESSTNQPIT | failed
MKRNNKSAIALIALSLLALSSGAAFAGHHWGNNDGMWQQGGSPLTTEQQATAQKIYDDYYTQTSALRQQLISKRYEYNALLTASSPDTAKINAVAKEMESLGQKLDEQRVKRDVAMAQAGIPRGAGMGYGGCGGYGGGYHRGGGHMGMGNW | not failed
MKILVTSGGTSEAIDSVRSITNHSTGHLGKIITETLLSAGYEVCLITTKRALKPEPHPNLSIREITNTKDLLIEMQERVQDYQVLIHSMAVSDYTPVYMTGLEEVQASSNLKEFLSKQNHQAKISSTDEVQVLFLKKTPKIISLVKEWNPTIHLIGFKLLVDVTEDHLVDIARKSLIKNQADLIIANDLTQISADQHRAIFVEKNQLQTVQTKEEIAELLLEKIQAYHS | not failed
MLKHFGSKVRNLRVTRNITREDFCGDETELSVRQLARIESGQSIPNLTKAHYIAKQLNVKLDILTGGESLELPKRYKELKYLILRIPTYADAERLKLRECQFDHIFEEFYDNLPEDECLAIDSLQAKFEVYQTGDINFGVEVLCECFDKVKYKEKYTLNDLIIIDLFLTCAVVSKFNNRAFTKEVFQTICKTLISQNHKLTAEDLFWFNHVLLNCVFVGLCLNSEECLAEMLEVSRQTMVSTHDFHKMPLYFMYQWKYFITIDNDIKSAENAYQQSIMFSKMIDDKHLIKKLELEWQEDITGH | failed
MESTLSQLLPEALATRRRALAQMITGLHLAEHVHLSKVAGRIAGTAQLESKTRHLRRFLGNENVDPERFYSPVRDRLIEWAAQGAETQGSGPIRLLVDTVELSGERQVLMAGIAYRRRALPICWETYRREGVTNAEQQISLLKALVGRFPDEAEVVVVGDGAFHSTDLMDFIEDQGWHFCLRLHADTYIRSFKDSSKGFPKEGTWKQLRDLVPEEGERRYLQDVIVTKDNEYGPVGLALCQAEDEDDP | failed
MRKISIVIPVYNTEKYLKLSVDSVLSQSYQDWELILVDDGSKDGSGAICDKYASEDSRIKVYHTVNQGVTAARGYGVEQSTGEWICFLDADDTLADDALQVMLGKSADCDIVIGNKRIVSGNDVTEEWMNQDDRQLQAVEFLDGLIRNKISQYITGRIFRRILFDNGTICIPRELIMAEDFIMNVQLGNKAKKIAVIRDMVYGYHVYGESVSHTFRTNLEYESRFCDCLFSALKTGGYYEEVKEAFTFQKVRALKSAFMAQQGRVNLRHPFLQEVRKEAKSIGLSRGWKLFLYLLPLKYIGYIFFRSLNKLEHHHHHH | not failed
MELTTDIGGRSAAGVDRAPAGATSRTALWTGRVLSGLAIAFLAFDALGKLMRAAPVLEGSQQLGYPLDTVVGIGATLLACVVLYAIPRTAALGAILLTGYLGGAVATHVRVGNPLFSHVLFPTYVGALIWGGLVLRDRRLLAALLRGRARAAEEEA | failed
GSSGSSGPSSPSIDQVEPYSSTAQVQFDEPEATGGVPILKYKAEWRAVGEEVWHSKWYDAKEASMEGIVTIVGLKPETTYAVRLAALNGKGLGEISAASEFKTQPVREPSAPKLEGSGPSSG | not failed
MNELDVREFYQKQFELSNYDINTERWLEQLAKEVKEQIGYPFQSMLELGAGNGGFARAMSNLNVKMTTVELVPELVMFAKEHSTNDIEVHCADFYKINFEEKFDIVTYLDGFGVGTDEEQLFLLKRIYNWLKDDGCALIDIYQPLYWEKANGQEMPIYSAMRKYEYDSENARMLDHWWEKDSSNDIVTQSLRCYTIDEISNLCAEARFSIVGIFPGGAYDFEERKYKEQASLNECLSYRIKVKKSKD | failed
MSLKSLASIENWPVPTAAAGVVRADGTVLGTHGPAAHRFPLASVTKPLAAYAALVAYEEGAIELDEPAGPPGATVRHLLAHTSGLAFDEHRVTAPPGDRRLYSNAGFEQLGDHIAKAAEMPFAEYARQAVLEPLGMTATSLAGSPAKDGVSTVDDLLRFAAEVQAPRLLDPRTVAEAMTVQYPGTKGVLPGYGHQNPNDWGLGFEIRDGKSPHWTGAASSPRTFGHFGQSGTFLWIDPDAALACVSLTDRAFGPWAVEAWPPFTDGVLAEVRG | failed
MNIITTDPLFGFVLTVLVFMIGVRINENFRKPWTNPLLFATVVIILILSLAHIPYKNYYIGGSIINDLIGPSTVALGIPLYKTFHLMKHHARSIVSSIAIAALVNCIFTALCAKFFSLSKLASLSIFPKSVTTAMAMGISDKMHGVEQITVVVVVATGILTSVLGGPLLKLFRITDPVAQGIALGGTGHAVGTGTAIELGKTQGAMAALSIGVTGIMYVIFAPIIAKIILGY | failed
MKAKIYYNGNIITMEDSICGDAILIKDKIIKKIGTKEEVFALKNKDTEIIDLQGKTLMPSFIDSHSHLIAFATTLKLVPLEDATSFKDIVKKIQDFKESLEHHHHHH | failed
MATQAAGIFSPAITTTTSAVKKLHLFSSSHRPKSLSFTKTAIRAEKTESSSAAPAVKEAPVGFTPPQLDPNTPSPIFAGSTGGLLRKAQVEEFYVITWNSPKEQIFEMPTGGAAIMREGPNLLKLARKEQCLALGTRLRSKYKITYQFYRVFPNGEVQYLHPKDGVYPEKANPGREGVGLNMRSIGKNVSPIEVKFTGKQSYDL | failed
MSLSVLDAPASQPCCPTGVTPEPSSRGPSARRVALLLAGALVAWIVAYAAAHPLSRWLTFGLLGLAEGSHLGESLAFFLYDVPKVLLLLTLIVFLVGIVRSFFTAERTRAILVGKRESVGNVVAALLGVVTPFCSCSAIPLFLGFVEVGVPLGVTFSFLVSAPMVNEVALVLLLGLFGWKVAALYLVTGLTIAILAGFVLGRMKLERHVEPWVYESMKGEARFEKEHLGFAGRVERGLQAVREVVGKVWPWVVAGIAVGAGIHGYVPEGLLASFMGKSAWWSVPAAVALGVPMYSNAAGIIPVVEALLGKGAALGTVLAFMMAVIGLSLPEIVILRKVLRPPLILAFVGVVASGILLVGWLFNAVL | failed
MSFIVCMSVLGVLLMLLALTSSYLRWMPVTTSAVCLAFGFGIGPLGLDIINLDFKQSREWLECLTEVAVLFSLFGTGIKLRLPLNCKAWHSAYWLAGPVMLATIAGVSVAAHYIFAIDWGVALLLGAMLSPTDPVLAGMVQVNSAQDQDRLRFGLSGEAGLNDGTAFPFVIFAMLYLSSGGVTGDWAQHWLLKDLIWAVPAGLLIGFGMGRGVGHLMIFLRIKNADSTTSPNDFLALALIALAYVVAEGFGAFGFLSVFAAGFGLRQAEMRVTRSELPSEHVAQPVLGHMTAALDQGTVAKADDLSDSQLAAGVMMGDMLAFGSLVERAMEVLLITLLGAALASYWDWRAIGLGLALFCVIRPASVWLLVSQKLLNARQKALVGWFGIRGIGSLYYLCFALSHGLADDVGNVVIGMTLSVVALSILLHGISIQPLLERYERSTAANPDK | failed
GHMPTKQQLLYEGKAKKIYATDEPDVLWVEYKDSATAFNGEKKATIAGKGRLNNEISSLLFLKLREAGIANHFIEKLSPTEQLVRRVTIIPLEVVVRNVVAGSLAKRIGLEEGTPLEAPLVEFYYKNDDLGDPLLLEDHIFILKLASREEVAALKQAALAVNDVLRLHFAERNVRLIDFKLEFGRTADGAILLADEISPDTCRLWDAKTNEKLDKDVFRRDLGSLTDAYEVILQRLGGESACTK | not failed
MKICHRYIAWQVLTGMVIATAILLPLFSFFDLLDQLDDVGKGTYTTWDAFLYTVMLMPRRFIQIAPFIALLGTVGALGALAVNLELVAMRVAGLSPLMIGLAPVGIGGLLIASTIALEYFVAPQFQQQATILRAVALEQGAELGKGLGIWTRNERNILRIGEMLHKGRATDIEVIHFDGEGSMTAHVHAWYADIFDESLWKLHDVTIRTFSPDRITSRKAHILQWHSFLGPDDIATLTKSPESLTPIELVKHAEFLRATGQKADAYVMALWRKVGGAIMTIAMILVAIPFIFGSVREGLGGKLILAALMGISIYLFDQIIANIGLVFQLNPIVVSVVPGMVLIAVAAHWLLRRTF | failed
MFLTLSGADMSALIKGSGPHHVVVLNGWFGHAAGWGAFADYLDLGNYTWHFWDYRGYGNRKDDAGEFTLEEISADIVAYIDSIEAEKVSILGHSMGGVFMQKVLADSATPIASLVGISAVAAAGTPFDEDSRKLFTSAGHNPDSRRAIIDFTSGSRQPAAWLDDLTDSTVQNSTPEAVEKYFFAWADCNFAADLGTQDLPVYILTGDLDPAVTKTAVESAFGPIYQNLTVEELHDVGHYAIFEHPLGLAARVLRFLDAV | failed
ITARRRGELRRDALLKMGDQLRSLTTIQDMTGIASEIVGRALGAVRAGFGRVDPGEESVIIENDWSAAGYASLAGWHSLSDHPSFETANATKQPVVVADVAAAPPDNLSSQAKDDPGIGSLAVIPIENHDGSTALFFVHVAEPRDWSDDDLAFLRNVGDRLAAGVGRLDAEALQHTLNLELSHRMKNTLAMVMAIARQTLRSIP | failed
MVFIMENTNKIASLELGRLLAMFAIIALHSQVFMTYLLMDDFPVFGNIFNQLTRFAVPFFFILSGYFIQPKLTHTPLKTIQSYCAPLFKIWIVWSVLSLALPFHWRKVAENGYLAERTGYWNWLTQNPLNALFEGGMVHLWFIPALIIAVSIIGLLIHFKKTTWLIPIAVILYVYGLAGGSYQTLTEVWTPFFTRNGPFFSTLMVVIGFELRRREITLSSTNALILLLVGFAIHFSEAYWLTQFDVPFNLHDFLIGTPLMGIGVFFLLLSKPQLGHHPITFTLSKHVLGIYVCHLLFVVVFLNITGMMGITLAMRDFVIVFGTATASTLFVLIMDKTPFRQMLFR | failed
MTPDFQIVTQRLQLRLITADEAEELVQCIRQSQTLHQWVDWCHALFSQQEAEQFIQATRLNWVKAEAYGFGVFERQTQTLVGMVAINEFYHTFNMASLGYWIGDRYQRQGYGKEALTALILFCFERLELTRLEIVCDPENVPSQALALRCGANREQLAPNRFLYAGEPKAGIVFSLIP | not failed
